Experiments:
[1] = molecular target: MPK6ΔNt (29 to 305) (Arabidopsis) (UniProt Q39026); assay: ITC; SCRM KiDoK peptide to MPK6ΔNt (29 to 305), without kC9; 25°C, Malvern PEAQ-ITC; PBS pH 7.4 with 2% DMSO
[2] = molecular target: MPK6ΔNt (29 to 305) (Arabidopsis) (UniProt Q39026); assay: ITC; SCRM KiDoK peptide to MPK6ΔNt (29 to 305) preincubated with the small molecule kC9; 25°C, Malvern PEAQ-ITC; PBS pH 7.4 with 2% DMSO
[3] = molecular target: SCRM KiDoK peptide (Arabidopsis); assay: BLI; biotinylated SCRM KiDoK peptide (500 nM) loaded on streptavidin probes; MPK6 as analyte at 150-4.68 nM; without kC9; Octet Red96, 25°C; 1x PBS, 2% DMSO, 0.02 Tween 20, 0.1% BSA; 1:1 model, Kd from kobs with steady-state analysis
[4] = molecular target: SCRM KiDoK peptide (Arabidopsis); assay: BLI; as a1 but analyte MPK6 preincubated with the small molecule kC9 (MPK6:kC9 1:1.5), 150-4.68 nM; biotinylated SCRM KiDoK peptide on streptavidin probes; 25°C; 1x PBS, 2% DMSO, 0.02 Tween 20, 0.1% BSA

Kd [1] [nM] | Kd [2] [nM] | Kd [3] [nM] | Kd [4] [nM] | Substance
43.4 | 1400 |  |  | SCRM KiDoK peptide
 |  | 40.1 | 856 | MPK6ΔNt (29 to 305) (from UniProt Q39026 29-305) (domain or fragment)

Source: paper PMC11797554, “Chemical genetics reveals cross-regulation of plant developmental signaling by the immune peptide-receptor pathway” (Science Advances, 2024)
